Results on 1 substance are retold here after patent publication US8337848.

In this experiment the target is amyloid precursor protein (APP), full length (106 kDa), from MOG-G-UVW cell lysate (human) (UniProt P05067). Briefly: competition sandwich ELISA on APP from MOG cell lysate; competitor: APP DuoSet detection antibody; irrelevant IgG at 20 µg/ml. (In general: In an ELISA, binding on a coated surface is turned into a signal by an enzyme label.)
Sequence of UniProt P05067 (P05067 18-770): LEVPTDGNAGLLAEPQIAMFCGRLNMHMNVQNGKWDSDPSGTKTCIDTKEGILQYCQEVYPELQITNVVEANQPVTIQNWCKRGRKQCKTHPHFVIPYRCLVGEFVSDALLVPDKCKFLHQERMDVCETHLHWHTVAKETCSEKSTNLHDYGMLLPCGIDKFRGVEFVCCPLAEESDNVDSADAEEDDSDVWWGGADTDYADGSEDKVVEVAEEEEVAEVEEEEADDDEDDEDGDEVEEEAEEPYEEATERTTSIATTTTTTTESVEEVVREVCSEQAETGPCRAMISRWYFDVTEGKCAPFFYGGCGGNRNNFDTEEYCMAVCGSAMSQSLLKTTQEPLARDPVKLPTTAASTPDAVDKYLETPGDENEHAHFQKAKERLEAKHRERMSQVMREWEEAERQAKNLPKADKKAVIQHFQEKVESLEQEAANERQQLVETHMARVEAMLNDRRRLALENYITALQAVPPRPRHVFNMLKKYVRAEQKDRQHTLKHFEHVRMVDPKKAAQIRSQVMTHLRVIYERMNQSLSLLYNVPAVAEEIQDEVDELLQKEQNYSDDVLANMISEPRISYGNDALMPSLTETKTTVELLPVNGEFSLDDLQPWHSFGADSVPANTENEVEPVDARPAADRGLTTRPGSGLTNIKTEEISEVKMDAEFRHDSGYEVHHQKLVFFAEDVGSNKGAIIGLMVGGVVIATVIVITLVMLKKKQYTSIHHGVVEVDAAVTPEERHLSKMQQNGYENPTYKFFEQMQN

For “irrelevant mouse IgG antibody (Perbio Science)”, the % reduction of the binding of the second commercial antibody was 3.3%.
